Results as given in PMC5591402 (2017).
Read-outs that look alike come from different tables or passages of the source. Where no end group is shown, it is not given here.

B12: TAMRA-labeled α-synuclein peptide (peptide)
peptide: GYQDYEPEA
modifications: also: TAMRA fluorophore, position not given here

How the values were obtained:
Test in all cases: FP
[1] = target: B12
[2] = target: B12
N2.14 = target: N2.14
N2.10 = target: N2.10
N2.9 = target: N2.9
N2.15 = target: N2.15
N2.8 = target: N2.8
N2.11 = target: N2.11
N2.2 = target: N2.2
N2.7 = target: N2.7
N2.3 = target: N2.3
N2.1 = target: N2.1
N2.6 = target: N2.6
N2.4 = target: N2.4
N2.13 = target: N2.13
I55V/N2.12 = target: I55V/N2.12

B1: N2.5 VHH (VHH)
VHH: QGQLVESGGGSVQAGGSLRLSCAASGIDSSSYCMGWFRQRPGKEREGVARINGLSGVKTAYADSVKDRFTISRDNAENTVYLQMNSLKPEDTAIYYCAAKSSPGYCGGTWFSFGYWGQGTQVTVSS
- Kd [1]: 55.3 nM

B2: N2.17 reversion mutant L52b (VHH)
VHH: QGQLVESGGGSVQAGGSLRLSCAASGIDSSSYCMGWFRQRPGKEREGVARINGLGGVKTAYADSVKDRFTISRDNAENTVYLQMNSLKPEDTAIYYCAAKSSPGYCGGTWFNFGYWGQGTQVTVSS
- Kd [2]: 30 nM

B3: N2.12 reversion mutant A49 (VHH)
VHH: QGQLVESGGGSVQAGGSLRLSCAASGIDSSSYCMGWFRQRPGKEREGVARINGWRGIKTAYADSVKDRFTISRDNAENTVYLQMNSLKPEDTAIYYCAAKSSPGYCGGTWSNFGYWGQGTQVTVSS
- Kd [2]: 8.2 nM

B4: N2.17 reversion mutant S100d (VHH)
VHH: QGQLVESGGGSVQAGGSLRLSCAASGIDSSSYCMGWFRQRPGKEREGVARINGWGGVKTAYADSVKDRFTISRDNAENTVYLQMNSLKPEDTAIYYCAAKSSPGYCGGSWFNFGYWGQGTQVTVSS
- Kd [2]: 27.5 nM

B5: N2.12 reversion mutant F96 (VHH)
VHH: QGQLVESGGGSVQAGGSLRLSCAASGIDSSSYCMGWFRQRPGKEREGVGRINGWRGIKTAYADSVKDRFTISRDNAENTVYLQMNSLKPEDTAIYYCAAKFSPGYCGGTWSNFGYWGQGTQVTVSS
- Kd [2]: 18.6 nM

B6: N2.12 reversion mutant S100d (VHH)
VHH: QGQLVESGGGSVQAGGSLRLSCAASGIDSSSYCMGWFRQRPGKEREGVGRINGWRGIKTAYADSVKDRFTISRDNAENTVYLQMNSLKPEDTAIYYCAAKSSPGYCGGSWSNFGYWGQGTQVTVSS
- Kd [2]: 11.9 nM

B7: N2.17 reversion mutant S100f (VHH)
VHH: QGQLVESGGGSVQAGGSLRLSCAASGIDSSSYCMGWFRQRPGKEREGVARINGWGGVKTAYADSVKDRFTISRDNAENTVYLQMNSLKPEDTAIYYCAAKSSPGYCGGTWSNFGYWGQGTQVTVSS
- Kd [2]: 11 nM

B8: N2.12 reversion mutant G53 (VHH)
VHH: QGQLVESGGGSVQAGGSLRLSCAASGIDSSSYCMGWFRQRPGKEREGVGRINGWGGIKTAYADSVKDRFTISRDNAENTVYLQMNSLKPEDTAIYYCAAKSSPGYCGGTWSNFGYWGQGTQVTVSS
- Kd [2]: 14.1 nM

B9: N2.12 reversion mutant L52b (VHH)
VHH: QGQLVESGGGSVQAGGSLRLSCAASGIDSSSYCMGWFRQRPGKEREGVGRINGLRGIKTAYADSVKDRFTISRDNAENTVYLQMNSLKPEDTAIYYCAAKSSPGYCGGTWSNFGYWGQGTQVTVSS
- Kd [2]: 16.9 nM

B10: N2.16 VHH (VHH)
VHH: QGQLVESGGGSVQAGGSLRLSCAASGIDSSSYCMGWFRQRPGKEREGVGRINGWSGVKTAYADSVKDRFTISRDNAENTVYLQMNSLKPEDTAIYYCAAKSSPGYCGGTWYNFGYWGQGTQVTVSS
- Kd [1]: 11.2 nM

B11: N2.17 reversion mutant F96 (VHH)
VHH: QGQLVESGGGSVQAGGSLRLSCAASGIDSSSYCMGWFRQRPGKEREGVARINGWGGVKTAYADSVKDRFTISRDNAENTVYLQMNSLKPEDTAIYYCAAKFSPGYCGGTWFNFGYWGQGTQVTVSS
- Kd [2]: 72.2 nM

Binder: B12
- Kd (N2.14): 16.2 nM
- Kd (N2.10): 31.6 nM
- Kd (N2.9): 28 nM
- Kd (N2.15): 23.1 nM
- Kd (N2.8): 28.5 nM
- Kd (N2.11): 21.6 nM
- Kd (N2.2): 23 nM
- Kd (N2.7): 15.1 nM
- Kd (N2.3): 11.4 nM
- Kd (N2.1): 14.3 nM
- Kd (N2.6): 25.1 nM
- Kd (N2.4): 14.3 nM
- Kd (N2.13): 20.3 nM
- Kd (I55V/N2.12): 5.7 nM
